The values below are quoted from earlier work in article PMC10530560 (Cell chemical biology, 2023).

In data set [1] the test system is CXCL12.
In data set [2] the test system is CCL5.
For data set [3], the system named is CCL5. To be noted: CCL5, immobilized rPSGL-1 with SLe^x modification.
In data set [4] the test system is CXCL12. The following applies: CXCL12, chemotaxis assays using murine T-cells from WT and PSGL-1 null mice.
In a further data set the test system is VISTA. To be noted: pH-dependent; dependent on tyrosine sulfation, not on SLe^x on Thr57.

As to heparan sulfate, the heparan sulfate binding entry with CCL3 was “did not bind”; with CXCL8, “did not bind”; in the data set with CXCL12 [1] it was “found to bind”; in the data set on CCL5 [2] it was “found to bind”.

B1: PSGL-1: P-selectin glycoprotein ligand-1 as tested in previous literature studies (protein, UniProt Q14242 42-412, looked up)
P-selectin glycoprotein …: QATEYEYLDYDFLPETEPPEMLRNSTDTTPLTGPGTPESTTVEPAARRSTGLDAGGAVTELTTELANMGNLSTDSAAMEIQTTQPAATEAQTTQPVPTEAQTTPLAATEAQTTRLTATEAQTTPLAATEAQTTPPAATEAQTTQPTGLEAQTTAPAAMEAQTTAPAAMEAQTTPPAAMEAQTTQTTAMEAQTTAPEATEAQTTQPTATEAQTTPLAAMEALSTEPSATEALSMEPTTKRGLFIPFSVSSVTHKGIPMAASNLSVNYPVGAPDHISVKQCLLAILILALVATIFFVCTVVLAVRLSRKGHMYPVRNYSPTEMVCISSLLPDGGEGPSATANGGLSKAKSPGLTPEPREDREGDDLTLHSFLP
B1: the “binding to PSGL-1” value with CCL5 [3] is recorded as “did not bind”; in the data set on CCL21, “reported to bind PSGL-1”; with CXCL12 [4] it was “did not bind”; in the data set with CCL27, “reported to bind PSGL-1”; in the data set with CCL19, “reported to bind PSGL-1”. In addition, the “binding of VISTA” value in the data set on VISTA is on record as “novel pH-dependent ligand”.
